These results are taken from article PMC10348809, “CsMYB15 positively regulates Cs4CL2-mediated lignin biosynthesis during juice sac granulation in navel orange”.

For data set [1], the target named is T1, MBP-CsMYB15 (Citrus sinensis Osbeck ('Lane Late' …, UniProt A0A7G7YA61 1-267)).
T1 sequence: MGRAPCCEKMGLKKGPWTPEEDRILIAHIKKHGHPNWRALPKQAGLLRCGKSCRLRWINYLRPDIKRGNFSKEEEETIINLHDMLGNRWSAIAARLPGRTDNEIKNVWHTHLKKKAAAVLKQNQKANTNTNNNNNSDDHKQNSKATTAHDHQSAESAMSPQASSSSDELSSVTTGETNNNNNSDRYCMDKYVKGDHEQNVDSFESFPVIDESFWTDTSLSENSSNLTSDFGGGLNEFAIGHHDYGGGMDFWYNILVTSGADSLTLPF
Put plainly: EMSA; not stated (EMSA as in Shi et al., 2020 with minor modifications). The note with it: protein: recombinant; tags: MBP; label: 5' FAM on S18; blunt. For orientation: In EMSA bound probe runs differently from free probe, usually more slowly.

Data set [2] has as its target T1, MBP-CsMYB15. The data set can be described thus: competition; dose-dependent competition against FAM probe N1; not stated (EMSA as in Shi et al., 2020 with minor modifications). The note with it: protein: recombinant; tags: MBP; blunt.

B1: proCs4CL2 probe (dsDNA)
DNA 1: GCAAAAATAACTCACCATCCCCTTTGCTTCCC
DNA 2: GGGAAGCAAAGGGGATGGTGAGTTATTTTTGC
Regarding B1, the binding result in data set [1] is on record as “binds”.

B2: proCs4CL2 unlabeled competitor (dsDNA)
DNA 1: GCAAAAATAACTCACCATCCCCTTTGCTTCCC
DNA 2: GGGAAGCAAAGGGGATGGTGAGTTATTTTTGC
With B2, the binding result in data set [2] is “binds”.
